The target of experiment [1] is MICA*004 expressed on C1R transfectant cells (human) (UniProt Q29983). Kind of experiment: flow cytometry, MFI against antibody concentration on C1R-MICA*04 cells. On the technique in general: In flow cytometry, cells or beads pass a laser one at a time.
Experiment [2] addresses MICA*008 expressed on C1R transfectant cells (human) (UniProt Q29983). The experiment in a line: flow cytometry, MFI against antibody concentration on C1R-MICA*08 cells.
Experiment [3] addresses T1, MICA*001 expressed on transfected cells (human).
T1 sequence: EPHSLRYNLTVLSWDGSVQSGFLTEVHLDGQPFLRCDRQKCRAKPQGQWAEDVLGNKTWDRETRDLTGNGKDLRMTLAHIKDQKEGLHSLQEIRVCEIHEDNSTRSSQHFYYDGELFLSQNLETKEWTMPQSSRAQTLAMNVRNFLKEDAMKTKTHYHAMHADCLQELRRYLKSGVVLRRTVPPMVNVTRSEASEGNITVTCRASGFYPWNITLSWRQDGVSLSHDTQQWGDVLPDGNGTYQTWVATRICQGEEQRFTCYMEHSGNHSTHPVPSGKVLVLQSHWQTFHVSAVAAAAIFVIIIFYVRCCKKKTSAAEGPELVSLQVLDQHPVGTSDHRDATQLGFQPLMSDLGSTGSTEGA
Kind of experiment: flow cytometry, MFI against antibody concentration on C1R-MICA*01 cells.

The target of experiment [4] is MICA*007 expressed on C1R transfectant cells (human) (UniProt Q29983). The experiment in a line: flow cytometry, MFI against antibody concentration on C1R-MICA*07 cells.

A word on the EC50 (read off the curve): it is the concentration that produces a half-maximal response. Higher therefore signals weaker potency.

Chain of MICA*004 expressed on C1R transfectant cells (human) (Q29983 other isoform, or with tags, fused parts or gaps limits assumed): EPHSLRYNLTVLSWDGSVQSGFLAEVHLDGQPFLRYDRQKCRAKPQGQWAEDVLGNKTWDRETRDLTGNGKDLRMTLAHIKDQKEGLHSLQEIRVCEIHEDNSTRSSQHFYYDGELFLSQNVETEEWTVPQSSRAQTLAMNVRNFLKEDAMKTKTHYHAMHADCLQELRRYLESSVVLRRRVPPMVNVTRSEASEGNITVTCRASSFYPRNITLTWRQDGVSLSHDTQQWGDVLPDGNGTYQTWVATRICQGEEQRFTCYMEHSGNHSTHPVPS

B1: CHG1-M-MIA-10F3 (antibody, from a related filing, V domains shown)
VH: QVQLQQSAAELARPGASVKMSCKASGYTFTSYTMHWVKQRPGQGLEWIGYINPSSGYTEYNQKFKDKTTLTVDKSSTTSYMQLSSLTSDNSAVYYCARGGDWDVDWFVYWGQGTLVTVSA
VL: QIVLTQSPAIMSASPGEKVTITCSASSSISYMHWFQQKPGTSPKLWIYSTSKLASGVPARFSGSGSGTSHSLTISRMEAEDAATYYCQHRSTYPFTFGSGTKLEIK
As for B1, the EC50 (read off the curve) in experiment [1] turned out to be 0.2 µg/mL; in experiment [2], 0.3 µg/mL.

B2: CHG1-M-MIA-19E9 (antibody, V domains shown)
VH: DVQLQESGPGLVKPSQSLSLTCTVTGYSITSDYAWNWIRQFPGNKLEWMGFVSYSGTTKYNPSLKSRISITRDTSENQFFLQLNSVTSEDTATYYCARGYGFDYWGQGTTLTVSS
VL: EIVLTQSPTTMAASPGEKITITCSATSSISSIYFHWYQQRPGFSPKLLIYRTSNLASGVPARFSGSGSGTSYSLTIGTMEAEDVATYYCQQGTTIPFTFGSGTKLEIK
In the case of B2, in experiment [3], the EC50 (read off the curve) was determined as 1 µg/mL.

B3: CHG1-M-MIA-12A10 (antibody, from a related filing, V domains shown)
VH: QVQLQQSGADLVRPGASVRLSCRASGYSFTNYWMNWVKQRPGQGLEWIGMIHPSDSETRLNQKFKDKATLTVDKSSNTAYMQLSSPTSEDSAIYYCARDDFFTMDYWGQGTSVTVSS
VL: DILLTQSPAILSVSPGERVSFSCRASQNIVTSIHWYQQSTNGSPRLLIKYASESISGIPSRFSGSGSGTDFTLTINSVESEDVADYYCQQSNIWPLTFGAGTKLELK
Consider B3, for which the EC50 (read off the curve) was 0.3 µg/mL in experiment [1], 1 µg/mL in experiment [4] and 0.3 µg/mL in experiment [2].

B4: CHG1-M-MIA-14B4 (antibody, from a related filing, V domains shown)
VH: QVQLQQPGAELVRPGASVKLSCKASGYSFTSYWMNWMKQRPGQGLEWIGMIHPSDSETRLNQKFKDKATLTVDKSSSTAYMQLNSPTSEDSAVYYCAREMGPYTLDYWGQGTSVTVSS
VL: DILLTQSPAILSVSPGARVSFSCRASQNIDTSIHWYQQRTNGSPRLLIKYASESISGIPSRFSGSGSGTDFTLSINSVESEDIADYYCQQSNYWPLTFGAGTKLELK
With B4, the EC50 (read off the curve) in experiment [1] was 0.2 µg/mL; in experiment [2] it was 0.3 µg/mL.

B5: CHG1-M-MIA-18E8 (antibody, from a related filing, V domains shown)
VH: DVQLQESGPDLVNPSQSLSLICTVTGYSITSDYSWHWIRQFPGNKLEWMGNIHYSGRINYNPSLRSRISITRDTSKNQFFLQLISVTTEDTATYYCATRRTFGNFEDYWGQGTTLTVSS
VL: QIVLSQSPATLSVSPGEKVTMTCRSSSSVNYMHWYQQKPGSSPKPWIYATSTLASGVPARFSGSGSGTSYSLTISRVEAEDAATYYCQQWSSNPLTFGAGTKLELK
Consider B5, for which the EC50 (read off the curve) in experiment [1] is 0.2 µg/mL; in experiment [4], 0.3 µg/mL; in experiment [2], 0.3 µg/mL.

B6: CHG1-M-MIA-6E4 (antibody, from a related filing, V domains shown)
VH: EVQLVESGGALVKPGGSLKLSCAASGFTFSYYAMSWVRQTPEKRLEWVATISRGGNYIYYTDSVKGRFTISRDNAKNTLYLQMTSLRSEDTAMFYCASISDYDGAWLAYWGQGTTLTVSS
VL: DVLMTQTPLSLPVSLGDQASISCRSSQSIIHTNGNTYLEWYLQKPGQSPKLLIYKISNRFSGVPDRFSGSGSGTDFTLKISRVEAEDLGVYYCFQGSHVPWTFGGGTKLEIKR
With B6, the results for the EC50 (read off the curve) in experiment [3] and in experiment [4] were 0.6 µg/mL and 1 µg/mL, respectively.

The values are drawn from patent US20150191542A1.
